Results published in the supplement of paper PMC7877785.
± gives the uncertainty stated by the source.

Assay: self-splicing fitness, log relative to wild type (ln ratio); higher = more splicing; Tetrahymena group I intron in knt gene, E. coli kanamycin selection, DiMSum; sequences stand for … in CUCUCU…GGAGGGAAAAGUUAUCAGGCAUGCACCUGGUAGCUAGUCUUUAAACCAAUAGAUUGCAUCGGUUUAAAAGGCAAGACCGUCAAAUUGCGGGAAAGGGGUCAACAGCCGUUCAGUACCAAGUCUCAGGGGAAACUUUGAGAUGGCCUUGCAAAGGGUAUGGUAAUAAGCUGACGGACAUGGUCCUAACCACGCAGCCAAGUCCUAAGUCAACAGAUCUUCUGUUGAUAUGGAUGCAGUUCACAGACUAAAUGUCGGUCGGGGAAGAUGUAUUCUUCUCAUAAGAUAUAGUCGGACCUCUCCUUAAUGGGAGCUAGCGGAUGAAGUGAUGCAACACUGGAGCCGCUGGGAACUAAUUUGUAUGCGAAAGUAUAUUGAUUAGUUUUGGAGUACUCGUGGUCG
Procedure, shortened: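 Colonies from six replicate transformations of E. coli BL21(DE3) were pooled and amplicon-sequenced on an Illumina HiSeq 2500. The library placed an intron with all eight P1ex-region nucleotides randomised inside the knt kanamycin-resistance gene on pET-22b(+), and cells grew overnight at 37°C or 30°C on LB agar with or without 25 μg/mL kanamycin (plus 100 μg/mL carbenicillin, 50 μM IPTG, 0.2% rhamnose). Fitness is the DiMSum error-weighted combination of wild-type-normalised replicate fold changes, kanamycin versus none.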

Sequence	self-splicing fitness (ln) (30 °C)	self-splicing fitness (ln) (37 °C)
UUAAAGCAAUAUUACGAGUA	-1.08 ± 0.096	-0.715 ± 0.11
GAUCAGCAAUAUUACGCUUU	-1.02 ± 0.08	-0.877 ± 0.11
CAACAGCAAUAUUACGCAGU	-2.78 ± 0.19	-3.62 ± 0.3
GAUUAGCAAUAUUACGUUGG	-4.17 ± 0.27	-2.16 ± 0.18
AGCAAGCAAUAUUACGAAAG	-2.4 ± 0.23	-1.36 ± 0.22
GCGUAGCAAUAUUACGUCCA	-1.49 ± 0.099	-0.365 ± 0.1
UUAGAGCAAUAUUACGUGGG	-3.41 ± 0.22	-1.92 ± 0.17
CGGUAGCAAUAUUACGGACC	-3.71 ± 0.35	-1.29 ± 0.21
CACUAGCAAUAUUACGCUUU	-4.28 ± 0.42	-1.57 ± 0.2
GCACAGCAAUAUUACGGCGA	-1.16 ± 0.083	-0.758 ± 0.095
CCGGAGCAAUAUUACGUCUG	-1.22 ± 0.14	-0.402 ± 0.16
UUGUAGCAAUAUUACGCAGU		-2.1 ± 0.3
UAAGAGCAAUAUUACGUAGC	-4.28 ± 0.31	-2.71 ± 0.28
CGCAAGCAAUAUUACGGGCA	0.0951 ± 0.064	-0.199 ± 0.075
ACAGAGCAAUAUUACGGGUU	-2.43 ± 0.1	-3.08 ± 0.18
CACCAGCAAUAUUACGAGUG	-4.21 ± 0.18	-2.76 ± 0.17
CUUGAGCAAUAUUACGCUCA	-1.12 ± 0.32	-2.33 ± 0.29
AUCUAGCAAUAUUACGAUAC	-3.21 ± 0.35	-2.27 ± 0.29
UAGAAGCAAUAUUACGAUCA	-0.731 ± 0.064	0.138 ± 0.086
AAUUAGCAAUAUUACGCCUG	-0.979 ± 0.14	-0.733 ± 0.21
AUGAAGCAAUAUUACGUAUU	-1.52 ± 0.081	-1.23 ± 0.099
ACUCAGCAAUAUUACGGCCU	-0.0739 ± 0.079	-0.0329 ± 0.099
ACCAAGCAAUAUUACGCAGG	-3.41 ± 0.13	-2.59 ± 0.13
GUGCAGCAAUAUUACGCGUG	-1.52 ± 0.11	-1.66 ± 0.16
AGACAGCAAUAUUACGACCG	-1.4 ± 0.12	-0.429 ± 0.14
GGGCAGCAAUAUUACGGGCG	-0.318 ± 0.088	-0.0663 ± 0.1

Sequence	self-splicing fitness (ln) (30 °C)	self-splicing fitness (ln) (37 °C)
CAACAGCAAUAUUACGAGAU	-3.74 ± 0.2	-1.79 ± 0.15
CUGCAGCAAUAUUACGUCAC	-3.39 ± 0.31	
UAUGAGCAAUAUUACGUCCU	-2.35 ± 0.23	-2.19 ± 0.49
GCGCAGCAAUAUUACGGGAG	-3.14 ± 0.18	-1.39 ± 0.13
AGAGAGCAAUAUUACGACAG	-3.47 ± 0.43	-2.52 ± 0.41
CAUUAGCAAUAUUACGGGCA	-2.73 ± 0.27	-1.1 ± 0.16
ACUCAGCAAUAUUACGGCCC	-1.32 ± 0.15	-0.343 ± 0.19
GAGUAGCAAUAUUACGGUUA	-0.885 ± 0.14	-0.497 ± 0.099
GGAAAGCAAUAUUACGAAAG	-4.01 ± 0.35	-3.08 ± 0.35
UAUGAGCAAUAUUACGGCUU		-1.62 ± 0.32
UGCGAGCAAUAUUACGACCA	-0.371 ± 0.18	
GCAGAGCAAUAUUACGGCGU	-0.715 ± 0.099	-0.614 ± 0.11
AUGCAGCAAUAUUACGCCAU	-1.53 ± 0.18	-2.28 ± 0.35
GACUAGCAAUAUUACGACGG	-2.2 ± 0.24	-1.78 ± 0.35
AGCCAGCAAUAUUACGCCCC	-1.54 ± 0.24	0.277 ± 0.32
GCGUAGCAAUAUUACGCUCU	-3 ± 0.46	-1.59 ± 0.27
ACCCAGCAAUAUUACGUCUU	-1.25 ± 0.063	-0.446 ± 0.075
UUGCAGCAAUAUUACGAUCC	-3.64 ± 0.47	-1.68 ± 0.35
GCUCAGCAAUAUUACGAAUA	-1.02 ± 0.066	-0.439 ± 0.072
CUUAAGCAAUAUUACGAGUC	-3.23 ± 0.33	-2.33 ± 0.29
AUGGAGCAAUAUUACGAAAU	-1.92 ± 0.23	
GGACAGCAAUAUUACGGAGA	-2.98 ± 0.15	-2.61 ± 0.2
CGCAAGCAAUAUUACGAUAA	-3.03 ± 0.19	-1.51 ± 0.23
CACGAGCAAUAUUACGUAAG	-3.62 ± 0.14	-1.82 ± 0.11
AAGAAGCAAUAUUACGGGGC		-2.95 ± 0.26
CGUAAGCAAUAUUACGGAUU	-3.61 ± 0.3	-1.49 ± 0.23

Sequence	self-splicing fitness (ln) (30 °C)	self-splicing fitness (ln) (37 °C)
UCCCAGCAAUAUUACGAGAU	-3.57 ± 0.23	-2.66 ± 0.17
UAGUAGCAAUAUUACGUUUU	-3.14 ± 0.14	-2.27 ± 0.16
CCCAAGCAAUAUUACGCAAC	-3.16 ± 0.26	-2.71 ± 0.38
AAAAAGCAAUAUUACGAAGG	-3.57 ± 0.23	-1.89 ± 0.23
CCAGAGCAAUAUUACGGCAG	-1.8 ± 0.088	-1 ± 0.13
GCCAAGCAAUAUUACGCAUA	-1.3 ± 0.09	-0.709 ± 0.085
AUUCAGCAAUAUUACGUCGC	-2.74 ± 0.099	-1.86 ± 0.11
AGUCAGCAAUAUUACGCAAG	-2.69 ± 0.26	-1.28 ± 0.29
UUCUAGCAAUAUUACGUCGG	-3.54 ± 0.26	-3.1 ± 0.29
UUCGAGCAAUAUUACGUCCA	-2.49 ± 0.31	-1.75 ± 0.44
GCCGAGCAAUAUUACGGUAC	-2.88 ± 0.15	-0.908 ± 0.24
UUCCAGCAAUAUUACGAAUC	-4.37 ± 0.31	-1.09 ± 0.41
CUCUAGCAAUAUUACGCACG	-2.45 ± 0.17	-1.95 ± 0.23
UGGUAGCAAUAUUACGAACA	-0.325 ± 0.15	0.205 ± 0.27
AAUAAGCAAUAUUACGGUGC	-3 ± 0.15	-2.26 ± 0.23
GUUUAGCAAUAUUACGAAUU	-2.25 ± 0.38	-0.545 ± 0.31
GUAAAGCAAUAUUACGCAGA	-2.79 ± 0.22	-0.446 ± 0.17
AGAGAGCAAUAUUACGGUUG		-1.45 ± 0.41
AGAGAGCAAUAUUACGCAAA	-2.1 ± 0.32	-2.69 ± 0.48
CUGCAGCAAUAUUACGGUUA	-2.6 ± 0.16	-1.03 ± 0.12
GCUAAGCAAUAUUACGUUUG	-2.16 ± 0.09	-0.954 ± 0.12
UUGAAGCAAUAUUACGACCC	-3.15 ± 0.28	-0.772 ± 0.17
CUAAAGCAAUAUUACGUUCU	-4.08 ± 0.24	-3.07 ± 0.26
AGCAAGCAAUAUUACGGACC	0.36 ± 0.2	-0.517 ± 0.22
UUAUAGCAAUAUUACGGCAG	-0.689 ± 0.094	-0.0118 ± 0.13
